Laboratory results published in patent US12240882B2, “Fusion proteins comprising an engineered knottin peptide and uses thereof” (The Board of Trustees of the Leland Stanford Junior …, priority 2010, dated 2025).
“Also recorded” adds a separate entry of the source.

Columns and labels:
PC3 cells = experiment: Inhibition of PC3 cell adhesion to vitronectin by knottin-Fc proteins; type: cell-based; conditions: knottin-Fc fusions, FIG. 10
Protocol: Negative control is an irrelevant protein.
In another tumor model, the ability of the knottin-Fc proteins to inhibit PC3 cell adhesion to the extracellular matrix (ECM) protein vitronectin was analyzed. […] As the inhibition of integrin-ECM adhesion induces caspase-mediated apoptosis, this biological mechanism will be explored in future studies.

[1] = Gel filtration chromatography of knottin-Fc; type: physicochemical
sk0v3 cells = experiment: Binding of knottin-Fc proteins to sk0v3 cells; conditions: measured against wild-type EETII-Fc
Protocol: The binding of the knottin-Fc proteins to tumor cell lines were then measured.

αvβ3 integrin [2] = biological target: T1, αvβ3 integrin (Homo sapiens, UniProt P05106+P06756); experiment: Binding of soluble EETI 2.5D-Axl to K562-αvβ3 cells (flow cytometry); conditions: soluble protein from Pichia pastoris
αvβ3 integrin [3] = biological target: T1, αvβ3 integrin; experiment: cRGD competition of EETI 2.5D-Axl binding to K562-αvβ3 cells
[4] = circular dichroism
Gas6 [5] = biological target: T2, Gas6 (Homo sapiens, UniProt Q14393); experiment: Yeast display binding to Gas6 in presence of saturating αvβ3 integrin; conditions: 20 or 100 nM Gas6 with 200 nM αvβ3 integrin
T2 sequence (Q14393 31-678): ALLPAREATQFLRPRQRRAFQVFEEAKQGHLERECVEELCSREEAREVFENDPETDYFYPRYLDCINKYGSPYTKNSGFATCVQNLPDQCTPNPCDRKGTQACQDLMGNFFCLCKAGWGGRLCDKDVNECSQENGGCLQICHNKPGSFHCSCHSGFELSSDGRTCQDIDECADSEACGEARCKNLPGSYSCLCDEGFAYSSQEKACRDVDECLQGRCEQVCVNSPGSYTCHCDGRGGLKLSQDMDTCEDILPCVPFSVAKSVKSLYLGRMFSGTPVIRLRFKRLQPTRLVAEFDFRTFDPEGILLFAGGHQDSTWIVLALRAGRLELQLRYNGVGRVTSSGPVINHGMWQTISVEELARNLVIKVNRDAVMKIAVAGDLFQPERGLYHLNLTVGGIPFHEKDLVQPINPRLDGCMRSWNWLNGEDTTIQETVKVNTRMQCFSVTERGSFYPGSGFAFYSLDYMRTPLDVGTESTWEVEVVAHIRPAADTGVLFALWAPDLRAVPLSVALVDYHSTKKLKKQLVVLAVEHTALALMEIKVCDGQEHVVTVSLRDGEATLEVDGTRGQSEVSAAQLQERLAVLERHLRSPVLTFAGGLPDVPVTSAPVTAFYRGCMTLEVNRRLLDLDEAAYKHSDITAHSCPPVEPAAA

αvβ3 integrin [6] = biological target: T1, αvβ3 integrin; experiment: Yeast display binding of EETI 2.5D-Axl fusion to soluble αvβ3 integrin; conditions: 20, 50 or 100 nM αvβ3 integrin
Gas6 [7] = biological target: T2, Gas6; experiment: Yeast display binding of EETI 2.5D-Axl fusion to Gas6
αvβ3 integrin [8] = biological target: T1, αvβ3 integrin; experiment: Yeast display binding to αvβ3 integrin in presence of saturating Gas6; conditions: 100 or 200 nM αvβ3 integrin with 100 nM Gas6

T1 sequence (P06756 31-889 limits assumed): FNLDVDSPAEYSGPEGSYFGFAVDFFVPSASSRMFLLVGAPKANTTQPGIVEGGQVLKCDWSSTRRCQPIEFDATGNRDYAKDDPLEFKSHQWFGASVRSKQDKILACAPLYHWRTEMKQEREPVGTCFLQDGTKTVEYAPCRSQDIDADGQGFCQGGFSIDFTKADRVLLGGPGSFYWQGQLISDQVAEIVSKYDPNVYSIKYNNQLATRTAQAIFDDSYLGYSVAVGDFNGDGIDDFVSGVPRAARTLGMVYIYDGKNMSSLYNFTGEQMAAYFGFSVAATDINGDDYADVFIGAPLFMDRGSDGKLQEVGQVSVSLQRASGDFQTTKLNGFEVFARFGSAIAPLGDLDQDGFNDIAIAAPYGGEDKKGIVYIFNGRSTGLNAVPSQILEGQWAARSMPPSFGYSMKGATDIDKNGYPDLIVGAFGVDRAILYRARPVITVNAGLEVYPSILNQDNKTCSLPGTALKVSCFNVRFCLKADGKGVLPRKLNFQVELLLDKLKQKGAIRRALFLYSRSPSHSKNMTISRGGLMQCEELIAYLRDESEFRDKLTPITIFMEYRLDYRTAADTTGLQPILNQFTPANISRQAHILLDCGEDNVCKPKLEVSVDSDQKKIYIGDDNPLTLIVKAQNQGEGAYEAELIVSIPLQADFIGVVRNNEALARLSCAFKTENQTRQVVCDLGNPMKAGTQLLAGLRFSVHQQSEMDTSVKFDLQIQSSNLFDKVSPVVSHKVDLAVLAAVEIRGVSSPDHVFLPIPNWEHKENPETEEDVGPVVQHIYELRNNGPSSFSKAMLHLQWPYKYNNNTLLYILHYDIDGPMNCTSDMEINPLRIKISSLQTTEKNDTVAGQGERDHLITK
T1 sequence (P06756 891-1048 partner limits assumed): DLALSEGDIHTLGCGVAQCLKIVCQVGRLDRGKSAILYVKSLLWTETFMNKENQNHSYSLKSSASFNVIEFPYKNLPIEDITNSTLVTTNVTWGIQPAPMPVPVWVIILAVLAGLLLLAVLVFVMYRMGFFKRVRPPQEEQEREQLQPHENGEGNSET
T1 sequence (P05106 27-788): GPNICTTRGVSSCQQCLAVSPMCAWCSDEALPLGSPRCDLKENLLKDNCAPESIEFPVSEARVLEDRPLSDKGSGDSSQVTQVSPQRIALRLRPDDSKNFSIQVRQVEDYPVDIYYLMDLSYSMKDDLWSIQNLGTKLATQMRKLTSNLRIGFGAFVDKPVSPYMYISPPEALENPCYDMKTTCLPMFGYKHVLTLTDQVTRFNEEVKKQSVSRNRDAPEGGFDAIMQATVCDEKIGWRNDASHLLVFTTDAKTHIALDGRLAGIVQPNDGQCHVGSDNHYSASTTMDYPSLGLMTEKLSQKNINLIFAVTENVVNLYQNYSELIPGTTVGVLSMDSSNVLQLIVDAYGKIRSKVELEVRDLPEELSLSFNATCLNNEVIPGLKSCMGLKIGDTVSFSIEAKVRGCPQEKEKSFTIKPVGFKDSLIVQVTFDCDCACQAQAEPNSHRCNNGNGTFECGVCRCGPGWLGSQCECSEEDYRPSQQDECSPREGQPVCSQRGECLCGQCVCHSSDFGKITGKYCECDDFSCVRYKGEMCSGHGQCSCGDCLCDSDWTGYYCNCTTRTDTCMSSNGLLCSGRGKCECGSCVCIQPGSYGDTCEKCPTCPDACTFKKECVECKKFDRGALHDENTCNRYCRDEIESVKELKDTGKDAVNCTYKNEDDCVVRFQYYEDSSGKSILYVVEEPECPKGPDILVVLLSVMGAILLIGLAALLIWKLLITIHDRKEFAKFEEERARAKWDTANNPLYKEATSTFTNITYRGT

B1: 2.5D-Fc: EETI-based knottin 2.5D fused to Fc domain of mouse Ig2a (protein)
chain: GCPQGRGDWAPTSCKQDSDCRAGCVCGPNGFCGEPRGPTIKPCPPCKCPAPNLLGGPSVFIFPPKIKDVLMISLSPIVTCVVVDVSEDDPDVQISWFVNNVEVHTAQTQTHREDYNSTLRVVSALPIQHQDWMSGKEFKCKVNNKDLPAPIERTISKPKGSVRAPQVYVLPPPEEEMTKKQVTLTCMVTDFMPEDIYVEWTNNGKTELNYKNTEPVLDSDGSYFMYSKLRVEKKNWVERNSYSCSVVHEGLHNHHTTKSFSRTPGK
PC3 cells
  inhibition of PC3 cell adhesion to vitronectin: low nanomolar range
[1]
  tendency to aggregate: no tendency to aggregate

B2: 2.5F-Fc: EETI-based knottin 2.5F fused to Fc domain of mouse Ig2a (protein)
chain: GCPRPRGDNPPLTCKQDSDCLAGCVCGPNGFCGEPRGPTIKPCPPCKCPAPNLLGGPSVFIFPPKIKDVLMISLSPIVTCVVVDVSEDDPDVQISWFVNNVEVHTAQTQTHREDYNSTLRVVSALPIQHQDWMSGKEFKCKVNNKDLPAPIERTISKPKGSVRAPQVYVLPPPEEEMTKKQVTLTCMVTDFMPEDIYVEWTNNGKTELNYKNTEPVLDSDGSYFMYSKLRVEKKNWVERNSYSCSVVHEGLHNHHTTKSFSRTPGK
PC3 cells
  inhibition of PC3 cell adhesion to vitronectin: low nanomolar range
sk0v3 cells
  affinity to sk0v3 cells: greater affinity

B3: EETI 2.5D-Axl: EETI 2.5D directly fused to N-terminus of wt Axl Ig1 (amino acids 21-132), SEQ ID NO: 84 (protein)
chain: GCPQGRGDWAPTSCSQDSDCLAGCVCGPNGFCGSRGTQAEESPFVGNPGNITGARGLTGTLRCQLQVQGEPPEVHWLRDGQILELADSTQTQVPLGEDEQDDWIVVSQLRITSLQLSDTGQYQCLVFLGHQTFVSQPGYVGLEGLP
αvβ3 integrin [2]
  equilibrium binding to cells transfected to overexpress αvβ3 integrin: consistent with that previously determined for 2.5D
αvβ3 integrin [3]
  binding of EETI 2.5D-Axl to K562-αvβ3 cells with molar excess of cRGD: binding specifically to αvβ3 integrin
[4]
  Tm (° C.): 52 ± 0.7 °C
  melting temperature (Tm): ~52 °C
Gas6 [5]
  binding to Gas6 in presence of saturating αvβ3 integrin: not affected; also recorded: maintains affinity to Gas6
Gas6 [5]; listed as 2.5D-Axl
  binding to Gas6 in presence of saturating αvβ3 integrin: the same as when they were measured individually
αvβ3 integrin [6]
  binding to soluble αvβ3 integrin: levels comparable to the mono-specific proteins; also recorded: affinities similar to its corresponding mono-specific components
αvβ3 integrin [6]; listed as 2.5D-Axl
  binding to soluble αvβ3 integrin: matched that of 2.5D
Gas6 [7]; 0.2, 2 or 20 nM Gas6
  binding to Gas6: levels comparable to the mono-specific proteins; also recorded: affinities similar to its corresponding mono-specific components
Gas6 [7]; 0.2, 2 or 20 nM Gas6, listed as 2.5D-Axl
  binding to Gas6: maintained wild-type Axl's affinity
αvβ3 integrin [8]
  binding to αvβ3 integrin in presence of saturating Gas6: not affected; also recorded: is not lost
αvβ3 integrin [8]; listed as 2.5D-Axl
  binding to αvβ3 integrin in presence of saturating Gas6: the same as when they were measured individually
